According to patent US20160257763A1:

The substances below were run against FcRn (assay: SPR pH 6.0, Ab captured by goat anti-human IgG, FcRn injected).

| Kd | Substance |
| --- | --- |
| 5 µM | L351Y_F405A_Y407V / T366L_K392M_T394W (antibody) |
| 3.9 µM | T350V_L351Y_F405A_Y407V / T350V_T366L_K392L_T394W (antibody) |
| 4.3 µM | T350V_L351Y_F405A_Y407V / T350V_T366L_K392M_T394W (antibody) |
| 5 µM | T350V_L351Y_S400E_F405A_Y407V / T350V_T366L_N390R_K392M_T394W (antibody) |
| 4.1 µM | Y349C_T350V_F405A_Y407V / T350V_S354C_T366L_K392M_T394W (antibody) |
